Laboratory results: the supplement of paper PMC7125110
± gives the standard error. For some of these results: Fewer inactive variants are shown than the library holds.

B1: glmS ribozyme (parent)
chain: AUAAAAGCGCCAGAACUACAGAAAUGUAGUUGACGAGGAGGAGGUUUAUCGAAUUUUCGGCGGAUGCCUCCAAA

Columns and labels:
Settings in all cases: with glucosamine-6-phosphate
glucosamine-6-phosphate [1] = variants of: B1; assay: kcat; higher = faster cleavage; RNA array
Method in brief: (§1)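 A hybridised Cy3 probe tracked barcoded ribozyme variants, transcribed in situ by E. coli RNA polymerase on sequenced MiSeq chips, at 37 °C. The variants received 40 μM to 10 mM glucosamine-6-phosphate in HEPES/KCl/Mg(OAc)2 buffer. kobs came from decay fits and kcat and KM from weighted Michaelis–Menten fits.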

glucosamine-6-phosphate [2] = variants of: B1; assay: KM; higher = weaker cofactor use; RNA array
Method in brief: as §1

glucosamine-6-phosphate [3] = variants of: B1; assay: self-cleavage kobs at 640 uM GlcN6P; higher = faster cleavage; RNA array
Method in brief: as §1

glucosamine-6-phosphate [4] = variants of: B1; assay: self-cleavage kobs at 2500 uM GlcN6P; higher = faster cleavage; RNA array
Method in brief: as §1

glucosamine-6-phosphate [5] = variants of: B1; assay: self-cleavage kobs at 10000 uM GlcN6P; higher = faster cleavage; RNA array
Method in brief: as §1

glucosamine-6-phosphate [6] = variants of: B1; assay: self-cleavage kobs at 160 uM GlcN6P; higher = faster cleavage; RNA array
Method in brief: as §1

glucosamine-6-phosphate [7] = variants of: B1; assay: self-cleavage kobs at 40 uM GlcN6P; higher = faster cleavage; RNA array
Method in brief: as §1

## A12C U49G
glucosamine-6-phosphate [1]
  kcat: 0.000332 ± 1.7e-05 s⁻¹
glucosamine-6-phosphate [2]
  KM: 1730 ± 210 µM
glucosamine-6-phosphate [3]
  self-cleavage kobs at 640 uM GlcN6P: 8.81e-05 ± 2e-05 s⁻¹
glucosamine-6-phosphate [4]
  self-cleavage kobs at 2500 uM GlcN6P: 0.000216 ± 9.7e-05 s⁻¹
glucosamine-6-phosphate [5]
  self-cleavage kobs at 10000 uM GlcN6P: 0.000282 ± 4e-05 s⁻¹

## C11U G32A
glucosamine-6-phosphate [1]
  kcat: 0.000453 ± 3.3e-05 s⁻¹
glucosamine-6-phosphate [2]
  KM: 1520 ± 290 µM
glucosamine-6-phosphate [6]
  self-cleavage kobs at 160 uM GlcN6P: 5.04e-05 ± 2.1e-05 s⁻¹
glucosamine-6-phosphate [3]
  self-cleavage kobs at 640 uM GlcN6P: 0.00014 ± 3.1e-05 s⁻¹
glucosamine-6-phosphate [4]
  self-cleavage kobs at 2500 uM GlcN6P: 0.000239 ± 5.9e-05 s⁻¹
glucosamine-6-phosphate [5]
  self-cleavage kobs at 10000 uM GlcN6P: 0.000404 ± 4.4e-05 s⁻¹

## C10U A52G
glucosamine-6-phosphate [1]
  kcat: < 1e-05 s⁻¹

## G9A C61U
glucosamine-6-phosphate [1]
  kcat: 0.000168 ± 1.3e-05 s⁻¹
glucosamine-6-phosphate [2]
  KM: 1390 ± 290 µM
glucosamine-6-phosphate [3]
  self-cleavage kobs at 640 uM GlcN6P: 5.18e-05 ± 1.1e-05 s⁻¹
glucosamine-6-phosphate [4]
  self-cleavage kobs at 2500 uM GlcN6P: 0.000144 ± 5.4e-05 s⁻¹
glucosamine-6-phosphate [5]
  self-cleavage kobs at 10000 uM GlcN6P: 0.000146 ± 1.8e-05 s⁻¹

## G13A A53G
glucosamine-6-phosphate [1]
  kcat: 0.00138 ± 0.00018 s⁻¹
glucosamine-6-phosphate [2]
  KM: 4280 ± 820 µM
glucosamine-6-phosphate [6]
  self-cleavage kobs at 160 uM GlcN6P: 6.12e-05 ± 1.3e-05 s⁻¹
glucosamine-6-phosphate [3]
  self-cleavage kobs at 640 uM GlcN6P: 0.00017 ± 2e-05 s⁻¹
glucosamine-6-phosphate [4]
  self-cleavage kobs at 2500 uM GlcN6P: 0.000498 ± 5.7e-05 s⁻¹
glucosamine-6-phosphate [5]
  self-cleavage kobs at 10000 uM GlcN6P: 0.000981 ± 0.00011 s⁻¹

## A12G C58G C67A
glucosamine-6-phosphate [1]
  kcat: 0.000115 ± 2.4e-05 s⁻¹
glucosamine-6-phosphate [3]
  self-cleavage kobs at 640 uM GlcN6P: 0.000136 ± 3.6e-05 s⁻¹
glucosamine-6-phosphate [4]
  self-cleavage kobs at 2500 uM GlcN6P: 9.94e-05 ± 2.1e-05 s⁻¹

## C10U A14C
glucosamine-6-phosphate [1]
  kcat: < 1e-05 s⁻¹
glucosamine-6-phosphate [7]
  self-cleavage kobs at 40 uM GlcN6P: < 1e-05 s⁻¹

## A12G U55C
glucosamine-6-phosphate [1]
  kcat: 0.00114 ± 0.00024 s⁻¹
glucosamine-6-phosphate [2]
  KM: 4740 ± 1400 µM
glucosamine-6-phosphate [6]
  self-cleavage kobs at 160 uM GlcN6P: 4.44e-05 ± 7.8e-06 s⁻¹
glucosamine-6-phosphate [3]
  self-cleavage kobs at 640 uM GlcN6P: 0.000118 ± 1.7e-05 s⁻¹
glucosamine-6-phosphate [4]
  self-cleavage kobs at 2500 uM GlcN6P: 0.000461 ± 7.4e-05 s⁻¹
glucosamine-6-phosphate [5]
  self-cleavage kobs at 10000 uM GlcN6P: 0.000755 ± 9.7e-05 s⁻¹

## C10U A15G
glucosamine-6-phosphate [1]
  kcat: 2.54e-05 ± 2e-06 s⁻¹
glucosamine-6-phosphate [2]
  KM: 4700 ± 910 µM
glucosamine-6-phosphate [7]
  self-cleavage kobs at 40 uM GlcN6P: < 1e-05 s⁻¹

## C11G U30A
glucosamine-6-phosphate [1]
  kcat: 4.67e-05 ± 2.4e-06 s⁻¹

## C11U U56A C70U
glucosamine-6-phosphate [1]
  kcat: 0.00048 ± 0.00011 s⁻¹
glucosamine-6-phosphate [7]
  self-cleavage kobs at 40 uM GlcN6P: 3.04e-05 ± 9.5e-06 s⁻¹
glucosamine-6-phosphate [3]
  self-cleavage kobs at 640 uM GlcN6P: 0.000508 ± 0.00011 s⁻¹
glucosamine-6-phosphate [4]
  self-cleavage kobs at 2500 uM GlcN6P: 0.000485 ± 0.00013 s⁻¹
glucosamine-6-phosphate [5]
  self-cleavage kobs at 10000 uM GlcN6P: 0.000416 ± 6.3e-05 s⁻¹

## A6U U45G
glucosamine-6-phosphate [1]
  kcat: 0.000193 ± 3.9e-05 s⁻¹
glucosamine-6-phosphate [6]
  self-cleavage kobs at 160 uM GlcN6P: < 1e-05 s⁻¹
glucosamine-6-phosphate [5]
  self-cleavage kobs at 10000 uM GlcN6P: 4.41e-05 ± 9.1e-06 s⁻¹

## A12G A14C
glucosamine-6-phosphate [1]
  kcat: 0.000175 ± 3.9e-06 s⁻¹
glucosamine-6-phosphate [2]
  KM: 2970 ± 160 µM
glucosamine-6-phosphate [3]
  self-cleavage kobs at 640 uM GlcN6P: 3.2e-05 ± 7.2e-06 s⁻¹
glucosamine-6-phosphate [4]
  self-cleavage kobs at 2500 uM GlcN6P: 7.78e-05 ± 1.1e-05 s⁻¹
glucosamine-6-phosphate [5]
  self-cleavage kobs at 10000 uM GlcN6P: 0.000135 ± 1.1e-05 s⁻¹

## A12U G60U
glucosamine-6-phosphate [1]
  kcat: 1.13e-05 ± 1.6e-06 s⁻¹
glucosamine-6-phosphate [7]
  self-cleavage kobs at 40 uM GlcN6P: < 1e-05 s⁻¹
glucosamine-6-phosphate [6]
  self-cleavage kobs at 160 uM GlcN6P: < 1e-05 s⁻¹
glucosamine-6-phosphate [5]
  self-cleavage kobs at 10000 uM GlcN6P: < 1e-05 s⁻¹

## A12U G60A
glucosamine-6-phosphate [1]
  kcat: 8.33e-05 ± 8e-06 s⁻¹
glucosamine-6-phosphate [2]
  KM: 2040 ± 700 µM
glucosamine-6-phosphate [3]
  self-cleavage kobs at 640 uM GlcN6P: 2.88e-05 ± 1.4e-05 s⁻¹
glucosamine-6-phosphate [4]
  self-cleavage kobs at 2500 uM GlcN6P: 4.12e-05 ± 1e-05 s⁻¹
glucosamine-6-phosphate [5]
  self-cleavage kobs at 10000 uM GlcN6P: 7.02e-05 ± 8.4e-06 s⁻¹

## A12G U65G
glucosamine-6-phosphate [1]
  kcat: 0.000107 ± 1.4e-05 s⁻¹
glucosamine-6-phosphate [2]
  KM: 2380 ± 960 µM
glucosamine-6-phosphate [3]
  self-cleavage kobs at 640 uM GlcN6P: 3.32e-05 ± 9e-06 s⁻¹
glucosamine-6-phosphate [4]
  self-cleavage kobs at 2500 uM GlcN6P: 4.72e-05 ± 8.3e-06 s⁻¹
glucosamine-6-phosphate [5]
  self-cleavage kobs at 10000 uM GlcN6P: 8.79e-05 ± 7.1e-06 s⁻¹

## G7U C8G C50A
glucosamine-6-phosphate [1]
  kcat: 2.71e-05 ± 5.9e-06 s⁻¹

## G13A G32A
glucosamine-6-phosphate [1]
  kcat: 0.00473 ± 0.0013 s⁻¹
glucosamine-6-phosphate [2]
  KM: 4730 ± 1900 µM
glucosamine-6-phosphate [7]
  self-cleavage kobs at 40 uM GlcN6P: 4.73e-05 ± 7.3e-06 s⁻¹
glucosamine-6-phosphate [6]
  self-cleavage kobs at 160 uM GlcN6P: 0.000204 ± 6.5e-05 s⁻¹
glucosamine-6-phosphate [3]
  self-cleavage kobs at 640 uM GlcN6P: 0.000518 ± 0.00011 s⁻¹
glucosamine-6-phosphate [4]
  self-cleavage kobs at 2500 uM GlcN6P: 0.00129 ± 0.00022 s⁻¹
glucosamine-6-phosphate [5]
  self-cleavage kobs at 10000 uM GlcN6P: 0.00362 ± 0.00047 s⁻¹
